Patent publication US20210214454A1

Tests used:
[1] = target: cynomolgus CD40 protein expressed on CHO-S cells (cynomolgus) (UniProt G7PG38); assay: flow cytometry on CHO-S cells transiently expressing cynomolgus CD40; AF647 anti-human IgG (H+L) secondary; GeoMean RL1-H
[2] = target: human CD40 protein expressed on cells (human) (UniProt P25942); assay: flow cytometry on CHO-S cells transiently expressing human CD40; AF647 anti-human IgG (H+L) secondary; GeoMean RL1-H
Sequence of human CD40 protein expressed on cells (human) (P25942 21-277 limits assumed): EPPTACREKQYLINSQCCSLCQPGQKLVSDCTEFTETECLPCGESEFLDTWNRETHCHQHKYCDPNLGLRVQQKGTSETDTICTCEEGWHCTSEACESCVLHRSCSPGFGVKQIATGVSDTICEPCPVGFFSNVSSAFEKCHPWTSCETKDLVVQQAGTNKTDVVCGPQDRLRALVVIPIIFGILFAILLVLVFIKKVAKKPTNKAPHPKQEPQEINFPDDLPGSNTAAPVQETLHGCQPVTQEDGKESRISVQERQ

selicrelumab analogue (antibody)
EC50 (read off the curve) [1]: 0.08 µg/mL
EC50 (read off the curve) [2]: 0.07 µg/mL
